Experimental findings from patent publication US10590192B2, “Midkine antibody” (Cellmid Limited, priority 2014, dated 2020) are described below.

One assay deals with T1, murine MK (muMK) (Mus musculus, UniProt P12025).
T1 sequence (P12025 23-140): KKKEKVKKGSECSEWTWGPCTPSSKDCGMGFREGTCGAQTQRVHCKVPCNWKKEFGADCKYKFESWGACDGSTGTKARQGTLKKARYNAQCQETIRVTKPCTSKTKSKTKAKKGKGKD
In words: ELISA binding of humanised anti-MK antibodies to muMK. The following applies: ELISA, plates coated with 2 ug/mL muMK; read-out: Binding affinity for muMK, ELISA EC50. The protocol:
(§1) The binding specificity and affinity of the humanised anti-MK antibodies to recombinant human MK (huMK) and murine MK (muMK) was assessed by ELISA. ELISA plates (Nunc Immuno MaxiSorp 96 well flat-bottom were coated with 100 uL of 2 ug/mL of either huMK or muMK in 2% BSA/PBS (overnight at room temperature). After washing, blocking (1 h at 37° C.), and washing again, the humanised anti-MK and chimeric antibodies described in Example 1 were analysed for binding to huMK or muMK at concentrations ranging between 3 μg/ml and 0.00004 μg/ml in 2% BSA/PBS (1 h at 37° C.). After washing, the binding of antibody was detected with goat anti-mouse IgG (Fab specific)-HRP conjugate (Sigma, Cat. No. A9917) and SigmaFast OPD substrate (Sigma, Cat. No. P9187). The reaction was stopped with 3 M HCl, absorbance read at 490 nm on a Dynex Technologies MRX TC II plate reader and the binding curves plotted. Binding affinity data for the humanised anti-MK antibodies to huMK and muMK are presented in Table 6 and Table 7 respectively, and in FIG. 3.
(§2) KD values for hIP14-H5L8, hIP14-H6L3 and hIP14-H6L8 was then compared with the KD values obtained for the corresponding murine IP14 precursor antibody and the chimeric antibody using the methods described in Example 2. […] Based on this finding, these candidate antibodies were produced to 100 mg scale to enable further testing in functional assays to determine biological function.

The target in assay [1] is T2, recombinant human MK (huMK) (Homo sapiens, UniProt P21741).
T2 sequence (P21741 21-143): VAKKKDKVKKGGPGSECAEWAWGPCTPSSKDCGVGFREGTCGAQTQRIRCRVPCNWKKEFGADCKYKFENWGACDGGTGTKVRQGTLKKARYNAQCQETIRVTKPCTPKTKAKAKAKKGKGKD
The assay is described as follows: ELISA binding of humanised anti-MK antibodies to huMK. The settings on record: ELISA, plates coated with 2 ug/mL huMK; read-out: Binding affinity for huMK, ELISA EC50. The protocol:
as §1, §2

B1: IP14-H5L5: humanised IP14 antibody: VH SEQ ID NO: 6, VL SEQ ID NO: 14 (antibody, V domains shown)
VH: QVQLVQSGGGLVQPGGSLRLSCAASGQSFSSYWMNWVRQAPGQGLEWIGMIHPSDSETILNQKFKDKATLTVDISKNTAYLQMNSLRAEDTAVYYCSSWSAKRGDFWGQGTLVTVSS
VL: EIVLTQSPATLSLSPGERATLSCRASQGVSSNLAWYQQKPGQAPRLLIYDASNRATGIPARFSGSGPGTDFTLTISSLEPEDFAVYYCQQSNSWPLTFGQGTKVEIKR
modifications: Variable region heavy chain humanised variant 5 (VH5); Variable region light chain humanised variant 5 (VL5)
Turning to B1, the EC50 (with murine MK (muMK); in assay [1]) was greater than 0.01 µM throughout.

B2: IP14-H3L5: humanised IP14 antibody: VH SEQ ID NO: 4, VL SEQ ID NO: 14 (antibody, V domains shown)
VH: QVQLVQSGAEVKKPGASVKVSCKASGQSFSSYWMNWVRQAPGQGLEWMGMIHPSDSETILNQKFKDKVTMTRDTSTSTVYMELSSLRSEDTAVYYCARWSAKRGDFWGQGTLVTVSS
VL: EIVLTQSPATLSLSPGERATLSCRASQGVSSNLAWYQQKPGQAPRLLIYDASNRATGIPARFSGSGPGTDFTLTISSLEPEDFAVYYCQQSNSWPLTFGQGTKVEIKR
modifications: Variable region heavy chain humanised variant 3 (VH3); Variable region light chain humanised variant 5 (VL5)
As for B2, in assay [1], the concentration for a half-maximal effect (EC50) (in general, the concentration that produces a half-maximal response) was greater than 0.01 µM.

B3: IP14-H6L5: humanised IP14 antibody: VH SEQ ID NO: 7, VL SEQ ID NO: 14 (antibody, V domains shown)
VH: QVQLVQSGGGLVKPGHSLRLSCAASGQSFSSYWMNWVRQAPGKGLEWIGMIHPSDSETILNQKFKDKATLSVDIAKNSAYLQMNSLRAEDTAVYYCSSWSAKRGDFWGQGTLVTVSS
VL: EIVLTQSPATLSLSPGERATLSCRASQGVSSNLAWYQQKPGQAPRLLIYDASNRATGIPARFSGSGPGTDFTLTISSLEPEDFAVYYCQQSNSWPLTFGQGTKVEIKR
modifications: Variable region heavy chain humanised variant 6 (VH6); Variable region light chain humanised variant 5 (VL5)
B3: the half-maximal effective concentration (EC50) (with murine MK (muMK); in assay [1]) was greater than 0.01 µM in each case.

B4: IP14-H2L5: humanised IP14 antibody: VH SEQ ID NO: 3, VL SEQ ID NO: 14 (antibody, V domains shown)
VH: QVQLVQSGAEVKKPGASVKVSCKASGQSFSSYWMNWVRQAPGQGLEWIGMIHPSDSETILNQKFKDKATLTVDISTSTAYMELSSLRSEDTAVYYCSSWSAKRGDFWGQGTLVTVSS
VL: EIVLTQSPATLSLSPGERATLSCRASQGVSSNLAWYQQKPGQAPRLLIYDASNRATGIPARFSGSGPGTDFTLTISSLEPEDFAVYYCQQSNSWPLTFGQGTKVEIKR
modifications: Variable region heavy chain humanised variant 2 (VH2); Variable region light chain humanised variant 5 (VL5)
In the case of B4, the EC50 (with murine MK (muMK); in assay [1]) was greater than 0.01 µM throughout.

B5: IP14-H1L5: humanised IP14 antibody: VH SEQ ID NO: 2, VL SEQ ID NO: 14 (antibody, V domains shown)
VH: QVQLVQSGAEVKKPGHSVKVSCKASGQSFSSYWMNWVRQAPGQGLEWIGMIHPSDSETILNQKFKDKATLTVDISTSTAYMELSSPRSEDTAVYYCSSWSAKRGDFWGQGTLVTVSS
VL: EIVLTQSPATLSLSPGERATLSCRASQGVSSNLAWYQQKPGQAPRLLIYDASNRATGIPARFSGSGPGTDFTLTISSLEPEDFAVYYCQQSNSWPLTFGQGTKVEIKR
modifications: Variable region heavy chain humanised variant 1 (VH1); Variable region light chain humanised variant 5 (VL5)
B5: the 50% effective concentration (EC50) (with murine MK (muMK); in assay [1]) was greater than 0.01 µM each time.

B6: IP14-H3L4: humanised IP14 antibody: VH SEQ ID NO: 4, VL SEQ ID NO: 13 (antibody, V domains shown)
VH: QVQLVQSGAEVKKPGASVKVSCKASGQSFSSYWMNWVRQAPGQGLEWMGMIHPSDSETILNQKFKDKVTMTRDTSTSTVYMELSSLRSEDTAVYYCARWSAKRGDFWGQGTLVTVSS
VL: EIVLTQSPDFQSVTPKEKVNITCRASESISNNLHWYQQKPHQSPKLLIYYASQSISGVPSRFSGSGSGTDFNLTINSVEAEDAATYYCQQSNSWPLTFGGGTKLEIKR
modifications: Variable region heavy chain humanised variant 3 (VH3); Variable region light chain humanised variant 4 (VL4)
Consider B6, for which, in assay [1], the EC50 was greater than 0.01 µM.

B7: IP14-H3L7: humanised IP14 antibody: VH SEQ ID NO: 4, VL SEQ ID NO: 16 (antibody, V domains shown)
VH: QVQLVQSGAEVKKPGASVKVSCKASGQSFSSYWMNWVRQAPGQGLEWMGMIHPSDSETILNQKFKDKVTMTRDTSTSTVYMELSSLRSEDTAVYYCARWSAKRGDFWGQGTLVTVSS
VL: DIVLTQSPATLSLSPGERANLSCRASESISNNLHWYQQKPHQAPRLLIYYASQSISGVPARFSGSGSGTDFNLTISSVEPEDFAVYYCQQSNSWPLTFGQGTKVEIKR
modifications: Variable region heavy chain humanised variant 3 (VH3); Variable region light chain humanised variant 7 (VL7)
As for B7, the half-maximal effective concentration (EC50) in assay [1] is greater than 0.01 µM.

B8: IP14-H3L8: humanised IP14 antibody: VH SEQ ID NO: 4, VL SEQ ID NO: 17 (antibody, V domains shown)
VH: QVQLVQSGAEVKKPGASVKVSCKASGQSFSSYWMNWVRQAPGQGLEWMGMIHPSDSETILNQKFKDKVTMTRDTSTSTVYMELSSLRSEDTAVYYCARWSAKRGDFWGQGTLVTVSS
VL: DIVLTQSPATLSLSPGERATLSCRASESISNNLHWYQQKPHQAPRLLIYYASQSISGVPARFSGSGSGTDFTLTISSVEPEDFAVYYCQQSNSWPLTFGQGTKVEIKR
modifications: Variable region heavy chain humanised variant 3 (VH3); Variable region light chain humanised variant 8 (VL8)
For the molecule B8, the concentration for a half-maximal effect (EC50) in assay [1] is greater than 0.01 µM.

B9: IP14-H4L1: humanised IP14 antibody: VH SEQ ID NO: 5, VL SEQ ID NO: 10 (antibody, V domains shown)
VH: QVQLVQSGAEVKKPGASVKVSCKASGYTFTSYYMHWVRQAPGQGLEWMGIIHPSGGSTSYAQKFQGRVTMTRDTSTSTVYMELSSLRSEDTAVYYCARWSAKRGDFWGQGTLVTVSS
VL: EIVLTQSPATLSLSPGERANLSCRASESISNNLHWYQQKPHQAPRLLIKYASQSISGIPARFSGSGPGTDFNLTISSVEPEDFAVYYCQQSNSWPLTFGGGTKLEIKR
modifications: Variable region heavy chain humanised variant 4 (VH4); Variable region light chain humanised variant 1 (VL1)
In the case of B9, the EC50 (in the assay with murine MK (muMK); in assay [1]) was greater than 0.01 µM throughout.

B10: IP14-H4L3: humanised IP14 antibody: VH SEQ ID NO: 5, VL SEQ ID NO: 12 (antibody, V domains shown)
VH: QVQLVQSGAEVKKPGASVKVSCKASGYTFTSYYMHWVRQAPGQGLEWMGIIHPSGGSTSYAQKFQGRVTMTRDTSTSTVYMELSSLRSEDTAVYYCARWSAKRGDFWGQGTLVTVSS
VL: DIVLTQSPATLSLSPGERATLSCRASESISNNLHWYQQKPGQAPRLLIYYASQSISGIPARFSGSGPGTDFTLTISSLEPEDFAVYYCQQSNSWPLTFGGGTKLEIKR
modifications: Variable region heavy chain humanised variant 4 (VH4); Variable region light chain humanised variant 3 (VL3)
Take B10: the EC50 (with murine MK (muMK); in assay [1]) was greater than 0.01 µM in each case.

B11: IP14-H4L2: humanised IP14 antibody: VH SEQ ID NO: 5, VL SEQ ID NO: 11 (antibody, V domains shown)
VH: QVQLVQSGAEVKKPGASVKVSCKASGYTFTSYYMHWVRQAPGQGLEWMGIIHPSGGSTSYAQKFQGRVTMTRDTSTSTVYMELSSLRSEDTAVYYCARWSAKRGDFWGQGTLVTVSS
VL: EIVLTQSPATLSLSPGERATLSCRASESISNNLHWYQQKPGQAPRLLIKYASQSISGIPARFSGSGPGTDFTLTISSVEPEDFAVYYCQQSNSWPLTFGGGTKLEIKR
modifications: Variable region heavy chain humanised variant 4 (VH4); Variable region light chain humanised variant 2 (VL2)
As for B11, the half-maximal effective concentration (EC50) (with murine MK (muMK); in assay [1]) was greater than 0.01 µM each time.
